Data published in US20200247894A1 (Regeneron, published 2020).
Residue numbers refer to the chain shown, from its start. Each block holds one binder with its values, some of them ahead of it.

Tests used:
[1] = molecular target: T1, Macaca fascicularis IL2Rγ extracellular domain expressed with a C-terminal myc-myc-hexahistidine tag (Macaca fascicularis); test: SPR Biacore 4000, mAb captured by anti-hFc, 37C, dissociation in PBS-T pH 7.4
T1 construct: also called mfIL-2Rg-MMH; mfIL-2RG-MMH
T1 chain: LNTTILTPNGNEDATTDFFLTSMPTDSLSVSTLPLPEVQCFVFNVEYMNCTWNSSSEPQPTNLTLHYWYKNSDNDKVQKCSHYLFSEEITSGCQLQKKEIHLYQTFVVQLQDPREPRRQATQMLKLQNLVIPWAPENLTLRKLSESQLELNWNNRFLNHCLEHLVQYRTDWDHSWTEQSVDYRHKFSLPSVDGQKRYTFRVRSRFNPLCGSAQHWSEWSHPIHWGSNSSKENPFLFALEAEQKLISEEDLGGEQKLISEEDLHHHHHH
Experimental: (§1) The dissociation rate constant (kd) for binding of IL-2Rγ reagents to purified anti-IL2Rγ monoclonal antibodies was determined using a real-time surface plasmon resonance based Biacore 4000 biosensor platform. […] The CM5 Biacore sensor surface derivatized by amine coupling with monoclonal mouse anti-human Fc antibody (GE, Catalog # BR-1008-39) was used to capture anti-IL2Rγ monoclonal antibodies expressed with human IgG4 Fc. All the IL2Rγ reagents were expressed with a C-terminal myc-myc-hexahistidine tag (subsequently referred to with a -MMH suffix). […] The dissociation of bound IL-2Rg-MMH was performed in PBS-T-pH7.4 or PBS-T-pH6.0 running buffers for 6 minutes.
(§2) Dissociation rate constants (kd) in two running buffers were determined by fitting the real-time binding sensorgrams to a 1:1 binding model using Scrubber 2.0c curve-fitting software. Values of dissociation rate for […] mAb binding to hIL-2RG-MMH and mfIL-2RG-MMH at 25° C. and 37° C. in PBS-T-pH7.4 and PBS-T-pH6.0 is shown in Table 2-1 through Table 2-8.

[2] = molecular target: T1, Macaca fascicularis IL2Rγ extracellular …; test: SPR Biacore 4000, mAb captured by anti-hFc, 37C, dissociation in PBS-T pH 6.0
Experimental: as §1, §2

[3] = molecular target: T2, Human IL2Rγ extracellular domain expressed with a C-terminal myc-myc-hexahistidine tag (human); test: SPR Biacore 4000, mAb captured by anti-hFc, HBS-ET, 37C
T2 construct: also called hIL-2Rg-MMH; hIL-2RG-MMH
T2 chain: T1 chain with A14T, T16A, S22T, R141H, S228T
Experimental: (§3) Equilibrium dissociation constants (KD values) for IL-2Rγ binding to purified anti-IL2Rγ monoclonal antibodies were determined using a Biacore 4000 instrument equipped with a real-time surface plasmon resonance biosensor. All binding studies were performed in 10 mM HEPES, 150 mM NaCl, 3 mM EDTA, and 0.05% v/v Surfactant Tween-20, pH 7.4 (HBS-ET) running buffer at 25° C. and 37° C. The Biacore sensor surface was first derivatized by amine coupling with a monoclonal mouse anti-human Fc antibody (GE, # BR-1008-39) to capture anti-IL2Rγ monoclonal antibodies.
(§4) The dissociation of monoclonal antibody bound IL2Rγ reagents were monitored for 8-10 minutes in HBS-ET running buffer. Kinetic association (kₐ) and dissociation (kd) rate constants were determined by fitting the real-time sensorgrams to a 1:1 binding model using Scrubber 2.0c curve fitting software. Binding dissociation equilibrium constants (KD) and dissociative half-lives (t_{1/2}) were calculated from the kinetic rate constants as: […]

[4] = molecular target: T1, Macaca fascicularis IL2Rγ extracellular …; test: SPR Biacore 4000, mAb captured by anti-hFc, HBS-ET, 25C
Experimental: as §3, §4

[5] = molecular target: T2, Human IL2Rγ extracellular domain …; test: as above
Experimental: as §3, §4

100 nM Ag Bound (RU) [1]: 133 RU
koff [1]: 0.00267 s⁻¹
t1/2 [1]: 4 min
100 nM Ag Bound (RU) [2]: 126 RU
koff [2]: 0.0124 s⁻¹
t1/2 [2]: 0.9 min
100 nM Ag Bound [3]: 26 RU
Kd [3]: 18 nM
koff [3]: 0.0157 s⁻¹
kon [3]: 871000 M⁻¹ s⁻¹
t1/2 [3]: 0.7 min
100 nM Ag Bound [4]: 73 RU
Kd [4]: 6.58 nM
koff [4]: 0.00165 s⁻¹
kon [4]: 251000 M⁻¹ s⁻¹
t1/2 [4]: 7 min
100 nM Ag Bound [5]: 78 RU
Kd [5]: 5.38 nM
koff [5]: 0.00174 s⁻¹
kon [5]: 322000 M⁻¹ s⁻¹
t1/2 [5]: 7 min
B1: H4H12924P2 (antibody, human IgG4 S228P, kappa, V domains shown)
VH: EVQLVESGGGLVQPGRSLRLSCAASGFTLEDYAMHWVRQAPGKGLEWVSGISWNRGSTGYADSVKGRFTISRDNAKNSLYLQMTSLRAEDTALYYCAKGFYSMDVWGQGTTVTVSS
VL: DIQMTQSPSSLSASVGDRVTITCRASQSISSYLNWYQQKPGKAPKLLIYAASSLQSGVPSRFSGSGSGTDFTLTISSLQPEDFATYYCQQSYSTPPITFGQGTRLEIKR
notes: anti-IL2Rγ monoclonal antibody expressed with human IgG4 Fc

100 nM Ag Bound (RU) [1]: 143 RU
koff [1]: 0.000542 s⁻¹
t1/2 [1]: 21 min
100 nM Ag Bound (RU) [2]: 134 RU
koff [2]: 0.00155 s⁻¹
t1/2 [2]: 7 min
100 nM Ag Bound [3]: 57 RU
Kd [3]: 4.52 nM
koff [3]: 0.00174 s⁻¹
kon [3]: 386000 M⁻¹ s⁻¹
t1/2 [3]: 7 min
100 nM Ag Bound [4]: 58 RU
Kd [4]: 2.36 nM
koff [4]: 0.000269 s⁻¹
kon [4]: 114000 M⁻¹ s⁻¹
t1/2 [4]: 43 min
100 nM Ag Bound [5]: 67 RU
Kd [5]: 1.23 nM
koff [5]: 0.000316 s⁻¹
kon [5]: 257000 M⁻¹ s⁻¹
t1/2 [5]: 37 min
B2: H4H12858P (antibody, human IgG4 S228P, kappa, V domains shown)
VH: EVQLVESGGDLVQPGGSLRLSCTASGFIFRNYAMNWVRQAPGKGLEWLSGILGSNDNTYYVDSVKGRFTISRDNSRNTLYLQMNSLRAEDSAVYYCAKGDAGGFDYWGQGTLVTVSS
VL: DVVMTQSPLSLPVILGQPASISCRSSQSLVSSDGNTYLNWFQQRPGQSPRRLIYKVSNRDSGVPDRFSGSGSGTDFTLKISRVEAEDVGAYYCMQGSYWPPTFGQGTKLEIKR
notes: anti-IL2Rγ monoclonal antibody expressed with human IgG4 Fc; also called REGN9433

100 nM Ag Bound (RU) [1]: 47 RU
koff [1]: 0.00397 s⁻¹
t1/2 [1]: 2.9 min
100 nM Ag Bound (RU) [2]: 31 RU
koff [2]: 0.0123 s⁻¹
t1/2 [2]: 0.9 min
100 nM Ag Bound [3]: 18 RU
Kd [3]: 187 nM
koff [3]: 0.0129 s⁻¹
kon [3]: 69000 M⁻¹ s⁻¹
t1/2 [3]: 0.9 min
100 nM Ag Bound [4]: 17 RU
Kd [4]: 126 nM
koff [4]: 0.00507 s⁻¹
kon [4]: 40300 M⁻¹ s⁻¹
t1/2 [4]: 2.3 min
100 nM Ag Bound [5]: 27 RU
Kd [5]: 87.6 nM
koff [5]: 0.00321 s⁻¹
kon [5]: 36600 M⁻¹ s⁻¹
t1/2 [5]: 4 min
B3: H4H12859P (antibody, human IgG4 S228P, kappa, V domains shown)
VH: QVQLVQSGAEVKKPGASVRVSCKASGYTFTDYDIHWVRQAPGHGLEWMGWINPNSGGTNYAQKFQGRVTMTRDTSISTVYMDLSRLRSDDTAVYYCARADYSSSYYYYGMDVWGQGTTVTVSS
VL: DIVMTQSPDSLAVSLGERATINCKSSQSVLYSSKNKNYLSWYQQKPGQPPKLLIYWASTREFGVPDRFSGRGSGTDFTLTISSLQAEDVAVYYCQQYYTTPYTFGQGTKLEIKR
notes: as for B1

100 nM Ag Bound (RU) [1]: 143 RU
koff [1]: 0.00102 s⁻¹
t1/2 [1]: 11 min
100 nM Ag Bound (RU) [2]: 141 RU
koff [2]: 0.00227 s⁻¹
t1/2 [2]: 5 min
100 nM Ag Bound [3]: 61 RU
Kd [3]: 10.6 nM
koff [3]: 0.00266 s⁻¹
kon [3]: 250000 M⁻¹ s⁻¹
t1/2 [3]: 4 min
100 nM Ag Bound [4]: 72 RU
Kd [4]: 5.19 nM
koff [4]: 0.000905 s⁻¹
kon [4]: 174000 M⁻¹ s⁻¹
t1/2 [4]: 13 min
100 nM Ag Bound [5]: 77 RU
Kd [5]: 5.03 nM
koff [5]: 0.001 s⁻¹
kon [5]: 199000 M⁻¹ s⁻¹
t1/2 [5]: 12 min
B4: H4H12871P (antibody, human IgG4 S228P, kappa, V domains shown)
VH: QVQLQESGPGLVKPSQTLSLTCTVSGGSITSGGYYWSWIRQYPGQGLEWIGYIYYSGKTYYNPSFTSRITISVDTSKKQFSLKMSSVTAADTAVYYCARAGFTSSNGWFDPWGQGTLVTVSS
VL: DIQMTQSPSSLSASVGDRVTITCRASQNIRSYLNWYQQKPGKAPKLLIYSASSLQSGVPSRFSGSGSGTDFTLTISSLQPEDFPTYYCQQTYSSPWTFGPGTKVEIKR
notes: anti-IL2Rγ monoclonal antibody expressed with human IgG4 Fc; also called REGN9434
